As a reminder, the Kd is the equilibrium constant for the complex coming apart. A low value points to tighter binding.

For assay [1], the target named is G3. The assay can be described thus: SPR (Biacore); without IL-10Rα. Background: SPR reads the build-up and loss of mass on a sensor chip optically.
A further assay addresses G3 (+Rα). The experiment in a line: SPR (Biacore); pre-bound to IL-10Rα.
The target in another assay is A11 (+Rα) (UniProt Q13651 22-235). The assay can be described thus: SPR (Biacore); pre-bound to IL-10Rα.
The target in a further assay is B11 (+Rα) (UniProt Q13651 22-235). The assay can be described thus: SPR (Biacore); pre-bound to IL-10Rα.
The next assay addresses R5A11 (+Rα) (UniProt Q13651 22-235). The experiment in a line: SPR (Biacore); pre-bound to IL-10Rα.
A further assay deals with R5A11. The experiment in a line: SPR (Biacore); monomer, without IL-10Rα.
The next assay has as its target B11. The assay can be described thus: SPR (Biacore); monomer, without IL-10Rα.
Assay [2] addresses G3. The assay can be described thus: SPR (Biacore); monomer, without IL-10Rα.
The target in a further assay is A11. The assay can be described thus: SPR (Biacore); monomer, without IL-10Rα.

B1: IL-10Rβ (receptor)
chain: MVPPPENVRMNSVNFKNILQWESPAFAKGNLTFTAQYLSYRIFQDKCMNTTLTECDFSSLSKYGDHTLRVRAEFADEHSDWVNITFCPVDDTIIGPPGMQVEVLADSLHMRFLAPKIENEYETWTMKNVYNSWTYNVQYWKNGTDEKFQITPQYDFEVLRNLEPWTTYCVQVRGFLPDRNKAGEWSEPVCEQTTHDETVPSLNDIFEAQKIEWHWHHHHHH
modifications: biotinylated with BirA ligase on the biotin acceptor peptide
In the case of B1, the Kd with G3 [1] is 2400 nM; with G3 (+Rα) it was 8 nM; in the assay with A11 (+Rα), 23 nM; with B11 (+Rα), 65 nM; in the assay with R5A11 (+Rα), 100 nM; with R5A11, 8900 nM. The figures for the Kd in the assay with B11, with G3 [2] and with A11 were 9400 nM, 2400 nM and 2400 nM, respectively.

Values taken from patent US20230203117A1 (published 2023).
